One data set deals with mouse retina. The data set is described as follows: In vivo GFP fluorescence (cSLO) after intravitreal rAAV2 GFP-riboswitch cassette and ligand gavage. Details: species or system C57Bl/6j mice. The note with it: delivered to the mouse retina using a rAAV2 vector. On the procedure:
Next, the optimal copy number of each riboswitch was cloned into a rAAV GFP reporter cassette and packaged in an AAV2 capsid. Each GFP-riboswitch cassette was injected intravitreally into C57Bl/6j mice in combination with an AAV2 control vector harboring a non-inducible mCherry reporter gene. Four weeks post-injection, mCherry and GFP fluorescence levels were quantified in vivo using a custom ‘Multiline’ confocal scanning laser ophthalmoscope (cSLO). Mice subsequently received a dose of 1000 mg/kg of its activating ligand (tetracycline, theophylline), and fluorescence levels were quantified 2 and 24 hours post-gavage.

Data set [1] has as its system HEK293T cells. The data set is described as follows: Dynamic range / dose-responsiveness to activating ligand, firefly luciferase constructs. The class given is cell-based. The note with it: for Response to ligand in cell culture (firefly luminescence) / Dynamic Range: HEK293T cells; for Response to ligand in cell culture (firefly luminescence): dual luciferase assay, tetracycline or theophylline; for Dynamic range compared with similar riboswitches known in the art: 0-100 μM respective ligand, with target miRNA sequence; for Dynamic Range: optimal copy number, 0-100 μM activating ligand. On the procedure: The riboswitches were evaluated in HEK293T cells to determine optimal copy number (largest dynamic range) and dose-responsiveness to its activating ligand using a dual luciferase assay. The ligand used were tetracycline and theophylline.
For determining dynamic range, constructs containing firefly luciferase containing the optimal copy number of the riboswitch were made. HEK293T cells were plated on day 1, and transfected on day 2 with 1 μg of plasmid DNA. Cells were treated with 0-100 μM of the ligand corresponding to the riboswitch and the luminescence was quantified on day 3 using plate reader.
Experiments as described in Example 2A were also carried out using the newly designed Tet-SLIM and Theo-SLIM switches including target miRNA sequence, as depicted in FIGS. 12A and 13A, respectively.

Data set [2] concerns HEK293T cells. Description: Optimal copy number of riboswitch, GFP plasmids, fluorescence plate reader. Format: cell-based. The following applies: plasmids with 0-4 copies of riboswitch, GFP transgene. On the procedure: The protocol for both assays are outlined in FIGS. 8A and 8B. For determining optimal copy numbers, plasmids containing 0-4 copies of each riboswitch were created with the transgene as green fluorescence protein (GFP) for readout. HEK293T cells were plated in a 12-well plate and on day 2 transfected with 1 μg of each plasmid DNA. On day 3, cells were observed by fluorescent microscopy (excitation 467-498 nm) and fluorescence was quantified using a plate reader (488 nm excitation 520 nm emission).
As depicted in FIG. 9A, L2Bulge18tc riboswitch was one ON-type riboswitch tested. The cells were treated with 0 μM, 25 μM, 50 μM, 75 μM, and 100 µM of tetracycline (ligand), with the fluorescent microscopy results shown in FIG. 9D.
L2Bulge 9 was also tested (using activating ligand Theophylline), and the optimal copy number was determined to be 3.

Data on 7 molecules can be found in US12286631B2, “Riboswitch modulated gene therapy for retinal diseases” (The Medical College of Wisconsin, Inc., priority 2017, dated 2025).

B1: Theo6HDV: Theophylline OFF switch riboswitch, SEQ ID NO: 13 (nucleic acid)
chain: ATGGCCGGCATGGTCCCAGCCTCCTCGCTGGCGCCGGCTGGGCAACCACATACCAGCCGAAAGGCCCTTGGCAGGTGGGCGAATGGGACGCACAAATCTCTCTAGCTTCCCAGAGAGAAGCGAGAGAAAAGTGGCTCTC
For B1, the “Response to ligand in vivo” value with mouse retina is given as “responded to a ligand”. Besides, the “Response to ligand in cell culture (firefly luminescence)” value (shortened to “Response to ligand in cell culture”) with HEK293T cells [1] is reported as “responded to a ligand”.

B2: GuaM8HDV: Guanine OFF switch riboswitch, SEQ ID NO: 14 (nucleic acid)
chain: ATGGCCGGCATGGTCCCAGCCTCCTCGCTGGCGCCGGCTGGGCAATGCTATAATCGCGTGGATATGGCACGCAAGTTTCTACCGGGCACCGTAAATGTCCGACTAGTAGCGAATGGGACGCACAAATCTCTCTAG
B2: the “Response to ligand in vivo” value in the data set on mouse retina is on record as “responded to a ligand”. Moreover, the “Response to ligand in cell culture” value in the data set with HEK293T cells [1] is “responded to a ligand”.

B3: Theo-SLIM: theophylline-responsive self-targeting ligand inactivating microRNA (SLIM) switch, SEQ ID NO: 1 (nucleic acid)
chain: CGTATCAGCAGGTCCCATAAGCTTTCGACAATTAACGAGTGTGTACTCGTTCTATCATCTCACAGTTAAAGTCGGGAGAATAGGAGCCGCACGGGTCCTGATACCAGCGTGAGCGGAGAGAATCTTCTTTCTGTCTATTAGTGAAGCCACAGATGTAATAGACAGAAAGAAGATTCTCTCCGCCTACGCCCTTGGCAGCACCGTACGGTTCGATC
Regarding B3, in the data set on HEK293T cells [1], the “Dynamic range compared with similar riboswitches known in the art” value was “increased dynamic range” and the “Dynamic Range” value is 10.9-fold. In addition, the “Optimal Copy number” value with HEK293T cells [2] is reported as 1.

B4: L2Bulge9: Theophylline-responsive riboswitch, SEQ ID NO: 11 (nucleic acid)
chain: CTCGAGGCGATCGCAAACAAACAAAGCTGTCACCGGATGTGCTTTCCGGTCTGATGAGTCCGTTGTCCAATACCAGCATCGTCTTGATGCCCTTGGCAGTGGATGGGGACGGAGGACGAAACAGCAAAAAGAAAAATAAAAATTTTTTTTTTAATTAATCTTGGGCCC
As to B4, the “Response to ligand in vivo” value in the data set on mouse retina is listed as “responded to a ligand”. Besides, in the data set on HEK293T cells [1], the “Response to ligand in cell culture” value is given as “responded to a ligand” and the “Dynamic Range” value is 1.7-fold. In addition, in the data set with HEK293T cells [2], the “Optimal Copy number” value was determined as 3.

B5: K19: Tetracycline ON switch riboswitch, SEQ ID NO: 15 (nucleic acid)
chain: CAAACAAACAAAGGCGCGTCCTGGATTCGTGGTAAAACATACCAGATTTCGATCTGGAGAGGTGAAGAATACGACCACCTGTAGTATCCAGCTGATGAGTCCCAAATAGGACGAAACGCGCTAAACAAACAAAC
Take B5: the “Response to ligand in vivo” value in the data set on mouse retina is recorded as “responded to a ligand”. Moreover, in the data set on HEK293T cells [1], the “Response to ligand in cell culture” value is “responded to a ligand” and the “Dynamic Range” value is reported as 1.5-fold. In the data set with HEK293T cells [2], the “Optimal Copy number” value was 1.

B6: L2Bulge18tc: Tetracycline ON switch riboswitch, SEQ ID NO: 12 (nucleic acid)
chain: CTCGAGGCGATCGCAAACAAACAAAGCTGTCACCGGATGTGCTTTCCGGTCTGATGAGTCCGTTGTCCAAAACATACCAGATTTCGATCTGGAGAGGTGAAGAATTCGACCACCTGGACGAGGACGGAGGACGAAACAGCAAAAAGAAAAATAAAAATTAATTAATCTTGGGCCC
For B6, in the data set with mouse retina, the “Response to ligand in vivo” value is “responded to a ligand”. In the data set on HEK293T cells [1], the “Response to ligand in cell culture” value is “responded to a ligand” and the “Dynamic Range” value is on record as 4.3-fold. In addition, the “Optimal Copy number” value with HEK293T cells [2] worked out at 3.

B7: Tet-SLIM: tetracycline-responsive self-targeting ligand inactivating microRNA (SLIM) switch, SEQ ID NO: 17 (nucleic acid)
chain: CTAGCACGGGTCCCTAAAACATACCGTGAGCGCGAAAGCGCCCCCATTTTGAGTTAGTGAAGCCACAGATGTAACTCAAAATGGGGGCGCTTTCCCGCCTACGGAGAGGTGAAGAATACGACCACCTAGAAGCTTATTGGTACATGATAACACCCCAAAATCGAAGCACTTCAAAAACACCCCAAAATCGAAGCACTTCAAAAACACCCCAAAATCGAAGCACTTCAAAAACACCCCAAAATCGAAGCACTTCAGTCTCAGGCATCGTACGATGTCGACCTGCAGG
Regarding B7, in the data set with HEK293T cells [1], the “Dynamic range compared with similar riboswitches known in the art” value was “increased dynamic range” and the “Dynamic Range” value is 2.3-fold. The “Optimal Copy number” value with HEK293T cells [2] came to 1.
